Our source for the Kd values is paper PMC5800818 (2018).

Numbering of substitutions follows the chain as printed.

In test [1] the target is T1, rhodamine-labeled Mdm2^216–302 (human, UniProt Q00987-11 216-302, rhodamine label (site not stated)). As to the kind of experiment: FP.
Test [2] deals with T1, rhodamine-labeled Mdm2^216–302. Put plainly: FP. The source holds these as a separate data set.
For test [3] the target is unchanged. Put plainly: FP. The source holds these as a separate data set.
The target is the same in test [4]. Put plainly: FP; GPpY peptide preassembled with PTBi.

T1 sequence (Q00987 210-296): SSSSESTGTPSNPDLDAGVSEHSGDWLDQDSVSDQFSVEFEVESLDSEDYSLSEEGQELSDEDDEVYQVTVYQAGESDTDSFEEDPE

For orientation: Kd means a measure of binding affinity in units of concentration. Read a high Kd as lower affinity. For the molecule KRLKAERKFFKGFFGKTGKK (other) [thioredoxin-scaffolded Numb^63–82, His fusion], in test [1], the Kd was 86 µM.

B1: PTBi F75-76A (protein)
chain: SRPHQWQTDEEGVRTGKCSFPVKYLGHVEVDESRGMHICEDAVKRLKAERKFFKGAAGKTGKKAVKAVLWVSADGLRVVDEKTKDLIVDQTIEKVSFCAPDRNFDRAFSYICRDGTTRRWICHCFMAVKDTGERLSHAVGCAFAACLERKQKREKE
In test [2], B1 registered a Kd of 43.5 µM.

B2: Numb-PTBi (Numb^20–175), purified (domain or fragment)
chain: B1 chain with A56F, A57F
Regarding B2, the values for the Kd in test [3] and in test [1] were 5.5 µM and 6.1 µM, respectively.

B3: PTBi F71-72-75-76A (protein)
chain: B1 chain with F52A, F53A
In test [2], B3 showed a Kd of 60.6 µM.

B4: PTBi in complex with GPpY (complex)
chain 1: B1 chain with A56F, A57F
chain 2: AYIGPYL
modifications: phosphotyrosine at position 6 (AYIGPpYL)
B4 yielded a Kd in test [4] of 5.8 µM. That is a single-digit micromolar value.

B5: PTBi F71-72A (protein)
chain: B1 chain with F52A, F53A, A56F, A57F
Consider B5, for which, in test [2], the dissociation constant (Kd) was 29 µM.

B6: Numb-PTBo, purified (domain or fragment)
chain: SRPHQWQTDEEGVRTGKCSFPVKYLGHVEVDESRGMHICEDAVKRLKATGKKAVKAVLWVSADGLRVVDEKTKDLIVDQTIEKVSFCAPDRNFDRAFSYICRDGTTRRWICHCFMAVKDTGERLSHAVGCAFAACLERKQKREKE
B6 had a Kd in test [3] of 155 µM.

B7: Numb isoform-1 full-length, purified (natural protein)
chain: MNKLRQSFRRKKDVYVPEASRPHQWQTDEEGVRTGKCSFPVKYLGHVEVDESRGMHICEDAVKRLKAERKFFKGFFGKTGKKAVKAVLWVSADGLRVVDEKTKDLIVDQTIEKVSFCAPDRNFDRAFSYICRDGTTRRWICHCFMAVKDTGERLSHAVGCAFAACLERKQKREKECGVTATFDASRTTFTREGSFRVTTATEQAEREEIMKQMQDAKKAETDKIVVGSSVAPGNTAPSPSSPTSPTSDATTSLEMNNPHAIPRRHAPIEQLARQGSFRGFPALSQKMSPFKRQLSLRINELPSTMQRKTDFPIKNAVPEVEGEAESISSLCSQITNAFSTPEDPFSSAPMTKPVTVVAPQSPTFQANGTDSAFHVLAKPAHTALAPVAMPVRETNPWAHAPDAANKEIAATCSGTEWGQSSGAASPGLFQAGHRRTPSEADRWLEEVSKSVRAQQPQASAAPLQPVLQPPPPTAISQPASPFQGNAFLTSQPVPVGVVPALQPAFVPAQSYPVANGMPYPAPNVPVVGITPSQMVANVFGTAGHPQAAHPHQSPSLVRQQTFPHYEASSATTSPFFKPPAQHLNGSAAFNGVDDGRLASADRHTEVPTGTCPVDPFEAQWAALENKSKQRTNPSPTNPFSSDLQKTFEIEL
As for B7, the Kd in test [3] came out at 5.6 µM. In test [1], GMHICEDAVKRLKAERKFFKGFFGKTGKKAVKAVLWVS (other) [thioredoxin-scaffolded Numb^54–91, His fusion] yielded a Kd of 5.1 µM.
